# From PMC5352752, “Discovery and characterization of an F420-dependent glucose-6-phosphate dehydrogenase (Rh-FGD1) from Rhodococcus jostii RHA1” (Applied Microbiology and Biotechnology, 2016)
# B1: F420-dependent glucose-6-phosphate dehydrogenase Rh-FGD1 from Rhodococcus jostii RHA1 (enzyme, UniProt Q0RVH7 1-335, looked up)
# chain: MVIKFGYKASAEQFGPRELVELGVLAEAHGMDSATVSDHFQPWRHEGGHAPFSLAWMTAVGERTSRLQLGTSVMTPTFRYNPAVVAQAFATMGCLYPGRIMLGVGTGEALNEIATGFAGEWPEFKERFARLREAVALMRELWLGDRVDFEGNYYKTVGASIYDVPEGGIPVYIAAGGPVVARYAGRSGDGFICTSGKGMELYTEKLMPAVAEGAEKADRDVAEIDKMIEIKISYDTDPELALENTRFWAPLSLTPEQKHSIDDPIEMERAADALPIEQVAKRWIVASDPDEAVAQIRPYLDAGLNHLVFHAPGHDQKRFLELFQRDLAPRLRGLA
# notes: each monomer is comprised of residues 1-334; The native enzyme (tag cleaved) was used for crystallization; also called RHA1_RS43115; native Rh-FGD1; source: E. coli C41(DE3), purified (HisTrap, His-SUMO tag cleaved with SUMO protease, second HisTrap, Superdex 200); not shown: His6, N-terminal, cleaved; SUMO, N-terminal, cleaved
# Molecular target: the molecule itself
# Experiment: SEC; gel permeation analysis in solution, data not shown
protein,measurement,value
B1,stoichiometry N,2
